# In the DeepSol protein solubility set:
# Test: soluble on expression in E. coli; label from the status in PepcDB or PDB records
row,Sequence,soluble on expression in E. coli
1,MGSDKIHHHHHHMNTITPISTRRVTLALQGGGSHGAFTWGVLDRLLEEPRLRIEAVSGTSAGAMNAACLAHGLADSGRQGARDTLERFWTAISNAAAFSPIRRSPLAIWLGNWSVADSMGYLMSTAFGRALSPYQSNPLNINPLRETVERIIDFDAVRACRDLSLFVTATNVHTGRPRIFTREDLSVDAVLASACLPHLFQAVEIDGVPYWDGGYVGNPALWPLIYETDVRDLLLVRINPLIREQTPMTGLEIADRLNEITFNASMFREMRAIAFVGRMLDEGSLDPERYKRMLIHAIEAEDDLKSLGASSKLNAELPFLFHLRDIGRRAADDWLTKNLEKIGYESTVDVASAYL,not soluble
2,MLKTPSDAAVAGCLSLLLEVSGNPKAGNVDREHDFDDLKFEHFLASAAGAFPAFLEVAEKRIIGEGVLRAVKESMRWHRAENVHFGAFLLLVPLISSWDAG,not soluble
3,MGSDKIHHHHHHAQVKTYKYRVNFRDKAETTYALDKPSAYLSERALERRMKQGLPVDSTDIPVCRSYIDMLVGKGAQLVSKSKWNNTVVVQVSDTSVIDKVAALPFVTAVRKVWTAPDSIPARNANRKKEVTNRVTKSNNYYGDAWRQIAVHHGDSLHAAGFRGKGMQIAVIDAGFYNADEISVFKGMDLLGTRDFVNSHSDIYAENYHGMKVLSCMAANKPNVLVGTAPEASYWLLRSEDDDTEQPVEEDYWAEALEFADSVGVDVVNTSLGYYEFDDTTMNYRYRDLDGHYSLMSHSASLAADKGLVLVCSAGNSGRGTWKKITPPGDAENVITVGAADRNLVNADFSSVGNTTDGRVKPDVMAVGVASAVAGNDGTVSHANGTSFASPTLCGLVACFWQACPWLTAKQVVEAVRNAGDRKEYPDNIYGYGVPDIWKACQIELEKKK,not soluble
4,MSHLKDPTTQYYTGEYPKQKQPTPGIQAKMTPVPDCGEKTYVGSGRLKDRKALVTGGDSGIGRAAAIAYAREGADVAISYLPVEEEDAQDVKKIIEECGRKAVLLPGDLSDEKFARSLVHEAHKALGGLDIMALVAGKQVAIPDIADLTSEQFQKTFAINVFALFWLTQEAIPLLPKGASIITTSSIQAYQPSPHLLDYAATKAAILNYSRGLAKQVAEKGIRVNIVAPGPIWTALQISGGQTQDKIPQFGQQTPMKRAGQPAELAPVYVYLASQESSYVTAEVHGVCGGEHLG,soluble
5,MPPPTNQFKHDNIPLQTQGCEINVLCVRNPRARRIKLSVDERGVRLILPPCADLDAGTRFLLEQRAWIETQMARYASGTAATIPLRRGETTALPLRDQQLPLHWHESRYTRLELDAHGLQFYITTHTNDNTLRHTLREFYEVQARVDISDWLRKYLPGLPRPPTRVRLKPMSSQWGSLATAGHMALDLALVLGRPSAFEYVVVHELCHLIQANHSPAFWREVECRFPLWREERDYFHLKGRILKAQLRRLLQTELEHHHHHH,not soluble
6,MGSDKIHHHHHHMKCVVCGKNEAVEHGVCSQCLFDRANIENIGNVNIAICPKCGSVRIGKKWYREDYADHLLPLIMDEVKCSDPEAKISGDPKSVYFDESNRNLVLKVNITRDHMDPKVQTVSVPYSVNYISCPTCNKLTGSYFEATIQLRTVSTKYDEILSEVLDSIEKIMEKRRKMDASSFISKIERKPEGVDIYLGKKGDGDLVSSFILDHYFATLIVSKSLAGVKEGRKFFRFTYSLRILDAPEGAIVSVDKRKYILTAIRNRHIDVIDVETEERGRINRNVFFSNDGKIVTKEPQVKNFIVISRTEDESQIMDSQTFKIITIKGRAEGNEIRVFTYRGKYFI,not soluble
7,GSHMVKDTLFSTPIAKLGDFIFDENVAEVFPDMIQRSVPGYSNIITAIGMLAERFVTADSNVYDLGCSRGAATLSARRNINQPNVKIIGIDNSQPMVERCRQHIAAYHSEIPVEILCNDIRHVEIKNASMVILNFTLQFLPPEDRIALLTKIYEGLNPNGVLVLSEKFRFEDTKINHLLIDLHHQFKRANGYSELEVSQKRTALENVMRTDSIETHKVRLKNVGFSQVELWFQCFNFGSMIAVK,soluble
8,MSPRCANLALKHYLLKPVQRIPQYRLLLTDYLKNLIEDAGDYRDTQDALAVVVEVANHANDTMKQGDNFQKLMQIQYSLNGHHEIVQPGRVFLKEGILMKLSRKVMQPRMFFLFNDALLYTTPVQSGMYKLNNMLSLAGMKVRKPTQEAYQNELKIESVERSFILSASSATERDEWLEAISRAIEEYAKKRITFCPSRSLDEADSENKEEVSPLGSKAPIWIPDTRATMCMICTSEFTLTWRRHHCRACGKIVCQACSSNKYGLDYLKNQPARVCEHCFQELQKLDHQHSPRIGSPGNHKSPSSALSSVLHSIPSGRKQKKIPAALKEVSANTEDSSMSGYLYRSKGNKKPWKHFWFVIKNKVLYTYAASEVRSEI,soluble
9,MVPPTINTGKNITTERAVLTLNGLQIKLHKVVGESRDDIVAKMKDLAMDDHKFPRLPGPNPVSIERKDFEKLKQNKYVVSEKTDGIRFMMFFTRVFGFKVCTIIDRAMTVYLLPFKNIPRVLFQGSIFDGELCVDIVEKKFAFVLFDAVVVSGVTVSQMDLASRFFAMKRSLKEFKNVPEDPAILRYKEWIPLEHPTIIKDHLKKANAIYHTDGLIIMSVDEPVIYGRNFNLFKLKPGTHHTIDFIIMSEDGTIGIFDPNLRKNVPVGKLDGYYNKGSIVECGFADGTWKYIQGRSDKNQANDRLTYEKTLLNIEENITIDELLDLFKWE,soluble
10,MLVVPAIDLFRGKVARMIKGRKENTIFYEKDPVELVEKLIEEGFTLIHVVDLSNAIENSGENLPVLEKLSEFAEHIQIGGGIRSLDYAEKLRKLGYRRQIVSSKVLEDPSFLKSLREIDVEPVFSLDTRGGRVAFKGWLAEEEIDPVSLLKRLKEYGLEEIVHTEIEKDGTLQEHDFSLTKKIAIEAEVKVLAAGGISSENSLKTAQKVHTETNGLLKGVIVGRAFLEGILTVEVMKRYAR,soluble
11,MNVTSGMDQILAQLKATSDLAAGGSKPSATVSTVSQADFGQLLKSAVDQVNTVQQTASQLSREFVGGNQDVELHDVMISLQKANVSFQSMIQVRNRLVTAYQEIMNMQV,not soluble
12,AHHHHHHGSPRWGRGRRRKMRMIEFIPYARHFYPALPRFGPPKPPIIMTYEEFEALRLVDYEGLTQEEAGKRMGVSRGTIWRALTSARKKVAQMLVEGRELIILPQGNEVIKSDEE,not soluble
13,MGSDKIHHHHHHVIGKLTLDQLRVLVAVADTGSFTAASQAVGRAQSAVSQMMAALENAQGVQLFDRSSYRPMLTEAGRVLVAQARTTLAGASRFEAMAEHMRSGVEAELALAIDPLVPSAPFMQGLRDLSARYPDLSVSFSTEGLGGSLRRLRDGSASLGICTLLPTVPDDVVAYPLLQTAMTPVVAGNHPLASQDGPLQRGDLEPHVQLVLSDPVEPSGPNYGLTSARLWRFADLNRRLDFLLGGFGWCRMPEHLVADALADGRLVALDIKNDNAPQDGLPIYAAHARDRALGPAGRWFLDAMRECMAAA,not soluble
14,MSLSEEDLIENPLPENLLDKVIEGDAREVLKKIPDCSIHLMVTSPPYNVGKEYDEDMTLDEYLEFIEEIMKEVYRVLVWGGRACFNVANLGRKPYIPLHAYLIHLFEKIGFLIRGEIIWDKGEAVSGSSTAWGSWMSPVNPVLRDQHEYIIVMSKGDLKRRKPSDREAKSTITREEFLEFTRSVWKFPPESAKRVGHPAPFPEELPYRCIQLYTFKGDVVLDPFAGVGTTCVAAVKTGRHFVGIEINPEYVKKAEERVKDILSKPTLFEDHEGHHHHHH,soluble
15,MSLTATTDGSTGASLRPLAASASDTDITIPAAAAGVPEAAARATRRATDFLLAKQDAEGWWKGDLETNVTMDAEDLLLRQFLGIQDEETTRAAALFIRGEQREDGTWATFYGGPGELSTTIEAYVALRLAGDSPEAPHMARAAEWIRSRGGIASARVFTRIWLALFGWWKWDDLPELPPELIYFPTWVPLNIYDFGCWARQTIVPLTIVSAKRPVRPAPFPLDELHTDPARPNPPRPLAPVASWDGAFQRIDKALHAYRKVAPRRLRRAAMNSAARWIIERQENDGCWGGIQPPAVYSVIALYLLGYDLEHPVMRAGLESLDRFAVWREDGARMIEACQSPVWDTCLATIALADAGVPEDHPQLVKASDWMLGEQIVRPGDWSVKRPGLPPGGWAFEFHNDNYPDIDDTAEVVLALRRVRHHDPERVEKAIGRGVRWNLGMQSKNGAWGAFDVDNTSAFPNRLPFCDFGEVIDPPSADVTAHVVEMLAVEGLAHDPRTRRGIQWLLDAQETDGSWFGRWGVNYVYGTGSVIPALTAAGLPTSHPAIRRAVRWLESVQNEDGGWGEDLRSYRYVREWSGRGASTASQTGWALMALLAAGERDSKAVERGVAWLAATQREDGSWDEPYFTGTGFPWDFSINYNLYRQVFPLTALGRYVHGEPFAKKPRAADAPAEAAPAEVKGSEGHHHHHH,soluble
